System: MS2 coat protein
Assay: apparent KD of MS2 coat protein; designed switch direction (-1 OFF switch, 1 ON switch): -1; higher = weaker reporter binding
In short: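 Designed RNA switches with common flanks were transcribed on Illumina chips by stalled E. coli RNA polymerase and titrated with SNAP-549-labelled MS2 coat protein, from 0.7 or 1.5 nM doubling to 3 µM, in Tris-HCl pH 7.5 buffer with KCl, MgCl2, BSA, DTT, tRNA and Tween-20. Steps lasted 0.8–1.5 h (lowest) to 10–20 min (highest). Titrations ran without input, with 200 uM small-molecule ligand, or with an oligonucleotide input. Normalised cluster fluorescence was curve-fitted, and apparent KD is the per-design median over clusters.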

[1] = Eterna round: R95, input ligand: FMN 200 uM
[2] = Eterna round: R95, input ligand: microRNA oligo, concentration not stated
[3] = Eterna round: R95, input ligand: none
[4] = input ligand: microRNA oligo, concentration not stated

CAAACACUGGUCCAAGCACACAUGAGGAUCACCCAUGUCGCCACAUAGGCGCCGGGAAUUAAGCUUCCGUUCGUCUG [Eternabot (L2) Solution 14] (Eterna round: R97, puzzle: Sensor, turn-off variant 1)
apparent KD of MS2 coat protein (input ligand: FMN 200 uM): 0.113 µM
apparent KD of MS2 coat protein (input ligand: none): 0.15 µM

UCAUACGGUGAGGAUAUCUCCGCUAAAGUGUGUAGAGAAGGCGCUACAUGAGGAUCACCCAUGUUUAUGGGCAG [Ex-6 Malc#12] (puzzle: Exclusion 6)
apparent KD of MS2 coat protein [1]: 0.0529 µM
apparent KD of MS2 coat protein [2]: 0.347 µM
apparent KD of MS2 coat protein [3]: 0.443 µM

GGUCAGACGGUAGGAUAUCUAUAUCGAGUGACCCUUUCAUAACAUGAGGAUCACCCAUGUCGGUGGGAGAAGGGCCGUACGGCG [salish99_ExNG02_R04_007] (Eterna round: R96, puzzle: Exclusion NG 2)
apparent KD of MS2 coat protein (input ligand: FMN 200 uM): 0.0625 µM
apparent KD of MS2 coat protein [4]: 0.0316 µM
apparent KD of MS2 coat protein (input ligand: none): 0.0422 µM

CCGAAUAUGCAGGAUAUCGUAUCGGAGACGAUACGAGAAGGGCAAACAUGAGGAUCACCCAUGUUCCUUAACGG [Mat - Exclusion 6 - Eli Mod - D75] (puzzle: Exclusion 6)
apparent KD of MS2 coat protein [2]: 0.0159 µM

AUGGGUCCUCACGGAGCUACAUGAGGAUCACCCAUGUGGAUUGAGGAUAUCCACUGCCGACGGCUGGAGAAGGCAGUUUACUGU [Ex NG3 #94] (Eterna round: R96, puzzle: Exclusion NG 3)
apparent KD of MS2 coat protein (input ligand: FMN 200 uM): 0.0575 µM
apparent KD of MS2 coat protein [4]: 0.036 µM
apparent KD of MS2 coat protein (input ligand: none): 0.0499 µM

AAAUGAAAGGCAGGAUAUCGUACUGAUCUUUGUCGAGAAGGGCCAGGGUCCCUCGGCUACAUGAGGAUCACCCAUGUUAAAAGA [Onabele] (Eterna round: R96, puzzle: Exclusion NG 1)
apparent KD of MS2 coat protein (input ligand: FMN 200 uM): 0.0569 µM
apparent KD of MS2 coat protein [4]: 0.0294 µM
apparent KD of MS2 coat protein (input ligand: none): 0.0362 µM

GGGCCCGGAGGAUAUACAUGAGGAUCACCCAUGUAUUUGGGCCCUAUUGGGCCCGGGUGUAGAAGGCCGGGCCC [-42.1, -39.5 kcal, A 19%, 5abis,0] (Eterna round: R97, puzzle: Exclusion 3)
apparent KD of MS2 coat protein (input ligand: FMN 200 uM): 0.0173 µM
apparent KD of MS2 coat protein (input ligand: none): 0.0146 µM

CCGGAAGUACAGGAUAUCGUAACGGAAACGUUACGAGAAGGGUAUACAUGAGGAUCACCCAUGUGUCCUACCGG [Mat - Exclusion 6 - Eli Mod - D93] (puzzle: Exclusion 6)
apparent KD of MS2 coat protein [2]: 0.0226 µM

GAUCAACAUGAGGAUCACCCAUGUGAGGAUAUGAUACUAUGUACUUCGGUACAUAGUAUCAGAAGGCAUGUGAA [Ex1-3: 77] (puzzle: Exclusion 1)
apparent KD of MS2 coat protein [2]: 0.0801 µM

GAUCGCCGUGUCAGGAUAUCUUGUGUACCCACGUUAGAGAAGGGACAUGAGGAUCACCCAUGUACCCUGGUUCU [Brourd's mod of Exclusion 4 (MOD3 of Nando's BmEX4 C.21)] (Eterna round: R97, puzzle: Brourd's mod of Exclusion 4)
apparent KD of MS2 coat protein (input ligand: FMN 200 uM): 0.0187 µM
apparent KD of MS2 coat protein (input ligand: none): 0.0178 µM

CUCCCUCGGGUUAGGAUAUGCUACUGGCUUCAGAUGCAGAAGGAACAUGAGGAUCACCCAUGUACCAAAUAAAA [BmEX4 B.15] (Eterna round: R97, puzzle: Brourd's mod of Exclusion 4)
apparent KD of MS2 coat protein (input ligand: FMN 200 uM): 0.035 µM
apparent KD of MS2 coat protein (input ligand: none): 0.0145 µM

AGUGGGUCAGGAUAUUCUAUUAAUUACAUGAGGAUCACCCAUGUGAAUGGACAAGGGUGUGAAGAAGGGACUUGCG [Omei Ex5 A17d] (Eterna round: R97, puzzle: Exclusion 5)
apparent KD of MS2 coat protein (input ligand: FMN 200 uM): 0.324 µM
apparent KD of MS2 coat protein (input ligand: none): 0.546 µM

CCAGCGUAUGUGAGGAUAUGCUGGUCCUUGGAUCAGCAGAAGGCACAUGAGGAUCACCCAUGUGAGAGCGUUGG [JL bmx4 3.37] (Eterna round: R96, puzzle: Brourd's mod of Exclusion 4)
apparent KD of MS2 coat protein (input ligand: FMN 200 uM): 0.187 µM
apparent KD of MS2 coat protein [4]: 0.0256 µM
apparent KD of MS2 coat protein (input ligand: none): 0.0304 µM

AGCAUGCAGUAGGAUAUCGAUCCACAAUAUGAACGAGAAGGGCUGACAUGAGGAUCACCCAUGUGCGUCCGAAG [Ersoontiri] (Eterna round: R97, puzzle: Exclusion 6)
apparent KD of MS2 coat protein (input ligand: FMN 200 uM): 0.021 µM
apparent KD of MS2 coat protein (input ligand: none): 0.0168 µM

AGGUUGGCGUGAGGAUAUUGGAAAGGAAGUGUACAAGAAGGUACGGACCUAAAACAUGAGGAUCACCCAUGUGGUCCUUAUGCC [PowerStrip EXNG 1.26] (Eterna round: R96, puzzle: Exclusion NG 1)
apparent KD of MS2 coat protein (input ligand: FMN 200 uM): 0.014 µM
apparent KD of MS2 coat protein [4]: 0.0112 µM
apparent KD of MS2 coat protein (input ligand: none): 0.0196 µM

GUGGUACAUGAGGAUCACCCAUGUUAGGAUAUCGCGUGAGGUUUUACUUCCGCACACGCGAGAAGGGACGUCUU (puzzle: Exclusion 1)
apparent KD of MS2 coat protein [2]: 0.0414 µM

AAUUAACAUGUAGGAUAUCUGCACGUUUAGUGCAGAGAAGGACAUGAGGAUCACCCAUGUAUAGCGACUUCGGUCGCAAUAAUU [ENG1/2-B2] (Eterna round: R96, puzzle: Exclusion NG 1)
apparent KD of MS2 coat protein (input ligand: FMN 200 uM): 0.377 µM
apparent KD of MS2 coat protein [4]: 0.105 µM
apparent KD of MS2 coat protein (input ligand: none): 0.131 µM

CCUCAUGGGCAGGAUAUCAGUCGAAAGUUUAUAUGAGAAGGGCCAACAUGAGGAUCACCCAUGUAAUCCCUGAC [EX6 C.14] (Eterna round: R97, puzzle: Exclusion 6)
apparent KD of MS2 coat protein (input ligand: FMN 200 uM): 0.0667 µM
apparent KD of MS2 coat protein (input ligand: none): 0.0278 µM

CAGUCCGUUUGAGGAUAUCUCUGGAUCGCCAUGAGAGAAGGCAAACAUGAGGAUCACCCAUGUGGUACCGACUCAACGUCGACA [Eternabot solution 10] (Eterna round: R96, puzzle: Exclusion NG 1)
apparent KD of MS2 coat protein (input ligand: FMN 200 uM): 0.0207 µM
apparent KD of MS2 coat protein [4]: 0.0116 µM
apparent KD of MS2 coat protein (input ligand: none): 0.016 µM

AGCGUCUGAGGAUAUGCAUCUUAUCAGUCCGUGCGUAAGCGACAUGAGGAUCACCCAUGUAGAAGGUAGAUGCG [Eternabot (L1) Solution 10] (Eterna round: R97, puzzle: Exclusion 2)
apparent KD of MS2 coat protein (input ligand: FMN 200 uM): 0.0196 µM
apparent KD of MS2 coat protein (input ligand: none): 0.0176 µM

AACAAGGGUUAAUGUACGGACAUGAGGAUCACCCAUGUCCACGGAUGUGUGGAGAGGUCCUCUUUGGCUCGUCUUAU [Cac Sensor turn off var1 sub10] (Eterna round: R97, puzzle: Sensor, turn-off variant 1)
apparent KD of MS2 coat protein (input ligand: FMN 200 uM): 0.0478 µM
apparent KD of MS2 coat protein (input ligand: none): 0.0878 µM

UCAUACGGUGAGGAUAUCUCCGCUAAAGUGUGUAGAGAAGGCGCUACAUGAGGAUCACCCAUGUUUAUGGGCAG [Ex-6 Malc#12] (Eterna round: R96, puzzle: Exclusion 6)
apparent KD of MS2 coat protein [4]: 0.271 µM

AAUAAUAAGGAGGAUAUCCUAACCGAAAGGUUAGGAGAAGGCCUAACAUGAGGAUCACCCAUGUUCCUCAAUAA [Mat - Exclusion 6 - Eli Mod - D57] (puzzle: Exclusion 6)
apparent KD of MS2 coat protein [1]: 0.318 µM
apparent KD of MS2 coat protein [2]: 0.236 µM
apparent KD of MS2 coat protein [3]: 0.118 µM

CUAAAUCAUGUAGGAUAUGCGUAGCGAAGCUAUGCAGAAGGACAUGAGGAUCACCCAUGUUCUUCCGUCUGCGUACAGACGGAA [Mat - Exclusion NG 1 - Mod of JL - D29] (Eterna round: R96, puzzle: Exclusion NG 1)
apparent KD of MS2 coat protein (input ligand: FMN 200 uM): 0.337 µM
apparent KD of MS2 coat protein [4]: 0.0291 µM
apparent KD of MS2 coat protein (input ligand: none): 0.0382 µM

CGCAAAACCGUAAGGAUAUCCUUUCCGAAAGGGACGGAGAAGGUACAUGAGGAUCACCCAUGUCCUCCGAGCUG [Eternabot (Original) Solution 18] (Eterna round: R97, puzzle: Brourd's mod of Exclusion 4)
apparent KD of MS2 coat protein (input ligand: FMN 200 uM): 0.0206 µM
apparent KD of MS2 coat protein (input ligand: none): 0.018 µM

AUCGUGCAGCAAAGCUGUACGAGUACAUGAGGAUCACCCAUGUAGGAUAUGGUACGCAAAGCGUGCUAGAAGGAUAUGAGAUUA [Mat - Exclusion NG 3 - Mod of JL - D97] (Eterna round: R96, puzzle: Exclusion NG 3)
apparent KD of MS2 coat protein (input ligand: FMN 200 uM): 0.0381 µM
apparent KD of MS2 coat protein [4]: 0.0326 µM
apparent KD of MS2 coat protein (input ligand: none): 0.0577 µM

UUUUGUCGUGACAUGGGUGACAUGAGGAUCACCCAUGUUACAAGCUUGUUGCUCGUCUUAUAAUUAACCCAUGUCAU [LRO Sensor-off var1-18 mod of Stov1-13-A1 by Brourd] (Eterna round: R97, puzzle: Sensor, turn-off variant 1)
apparent KD of MS2 coat protein (input ligand: FMN 200 uM): 0.0447 µM
apparent KD of MS2 coat protein (input ligand: none): 0.0491 µM

AUUUAGUGAGGAUAUGGUAACGUUUACAUGAGGAUCACCCAUGUUUCAUGGGACUAGAGACUAGAAGGCACUAACG [JR_Ex5_Sub029] (Eterna round: R97, puzzle: Exclusion 5)
apparent KD of MS2 coat protein (input ligand: FMN 200 uM): 0.291 µM
apparent KD of MS2 coat protein (input ligand: none): 0.306 µM

CCGCUGUGAGGAUAUUAGUAGUAGUCAGAAAAGACUAUUACUGAGAAGGCACAUGAGGAUCACCCAUGUUGCGG [Mat - Exclusion 4 - Eli Mod - D48] (Eterna round: R97, puzzle: Exclusion 4)
apparent KD of MS2 coat protein (input ligand: FMN 200 uM): 0.0339 µM
apparent KD of MS2 coat protein (input ligand: none): 0.0382 µM

GGAAUGAGAGAGGAUAUGGGAGGGAGGACCGGACCAGAAGGCUCGACAUGAGGAUCACCCAUGUGGAGAUCCUC [AK-MS2ROC-r4-exclusion6-6.11] (Eterna round: R97, puzzle: Exclusion 6)
apparent KD of MS2 coat protein (input ligand: FMN 200 uM): 0.236 µM
apparent KD of MS2 coat protein (input ligand: none): 1.48 µM

UGUACUAACACGGAAGUGUUAGUACUAUAAGCUUGUGUUACAUGAGGAUCACCCAUGUCCUCAUAAGCUCGUCUUAU [Mat - Sensor v3 - Turn-off var 2 - D74] (puzzle: Sensor v3, turn-off variant 2)
apparent KD of MS2 coat protein [1]: 0.157 µM
apparent KD of MS2 coat protein [2]: 0.0536 µM
apparent KD of MS2 coat protein [3]: 0.172 µM

AGUGGGCUAGGAUAUCGAUGAACUCACAUGAGGAUCACCCAUGUGUCUUCGGUGGGCUCACGAGAAGGAGUAAGUU [Teanislaa] (puzzle: Exclusion 5)
apparent KD of MS2 coat protein [2]: 0.0157 µM

AGUCGUAGACAGGAUAUGCGGCUAAUAAAUAAUGCAGAAGGGUCUACUUGAGGAUCACCCAAGUGGGCGGUCUG [jl-ex6-4.23 ViennaUCT mod] (Eterna round: R97, puzzle: Exclusion 6)
apparent KD of MS2 coat protein (input ligand: FMN 200 uM): 0.0703 µM
apparent KD of MS2 coat protein (input ligand: none): 0.0173 µM

Source: the supplement of paper PMC9170038
